Molecular target: T1, T. gondii MAF1b (residues 173-443), co-expressed with RalGAPα1(GAP) in insect cells (Toxoplasma gondii, UniProt A0A140H546 173-443)
T1 construct: MAF1b of Toxoplasma gondii, structured C-terminal domain, residues 173-443; The results speak of nickel purification of MAF1b, the methods of streptactin purification and TEV cleavage of RalGAP (±MAF1b)
T1 sequence: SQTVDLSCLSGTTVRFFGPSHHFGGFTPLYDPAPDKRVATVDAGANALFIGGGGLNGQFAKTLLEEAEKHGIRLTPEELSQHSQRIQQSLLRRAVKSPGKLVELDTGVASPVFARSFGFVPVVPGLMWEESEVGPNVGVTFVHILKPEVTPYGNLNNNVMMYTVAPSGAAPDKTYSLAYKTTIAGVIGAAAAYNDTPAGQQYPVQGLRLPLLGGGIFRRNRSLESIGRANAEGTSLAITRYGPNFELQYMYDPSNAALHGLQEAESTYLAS
Test: SEC; RalGAPα1(GAP) co-expressed with MAF1b_WT in T. ni cells, co-purified by affinity chromatography, TEV cleavage, then Superdex 75 16/600 in 20 mM HEPES pH 7.5, 150 mM NaCl, 1 mM DTT; fractions on SDS-PAGE
Conditions: both partners purified

B1: GAP domain of human Ral GTPase Accelerating Protein α1 (residues 1807-1988) (domain or fragment)
chain: not shown
notes: Human RalGAPα1, putative GAP domain, amino acids T1807-P1988 of NP_055805.1; also called RalGAPα1(GAP); RalGAP; not shown: twin-strep-II, N-terminal, cleaved
**Q.** Does B1 bind?
**A.** binds

Reference: PMC10821591, “Toxoplasma gondii mitochondrial association factor 1b interactome reveals novel binding partners including Ral GTPase accelerating protein α1” (The Journal of Biological Chemistry, 2023)
